From publication PMC9508356 come the findings set out here.

The test addresses biotinylated SARS-CoV-2 spike protein subdomain 1 (S1) (SARS-CoV-2) (UniProt P0DTC2). Nature of the test: BLI.

In turn, “recombinant human albumin ACE2 genetic fusion with FcRn null-binding albumin sequence (NB-ACE2) (from UniProt Q9BYF1-1 18-740)” registered a dissociation constant (Kd) of 31.7 nM, a koff of 0.000209 s⁻¹ and a kon of 9640 M⁻¹ s⁻¹.
Taken in the same sequence, the figures for “recombinant human albumin ACE2 genetic fusion with wild type albumin sequence (WT-ACE2) (from UniProt Q9BYF1-1 18-740)” were 32.8 nM, 0.00028 s⁻¹ and 7860 M⁻¹ s⁻¹.

A word on the Kd: it is the equilibrium constant for the complex coming apart. A low value points to tighter binding. The term koff denotes the rate constant with which the complex falls apart. A high value points to a short-lived complex. Usually kon stands for the second-order rate constant of association. A low value points to slow association.
